Assay results taken from doi:10.1101/2020.09.09.290171 (bioRxiv, 2020).

Target: T1, recombinant NRPD1 fused at its C-terminus to a FLAG epitope tag (Arabidopsis thaliana, UniProt Q9LQ02 1-1453)
T1 sequence: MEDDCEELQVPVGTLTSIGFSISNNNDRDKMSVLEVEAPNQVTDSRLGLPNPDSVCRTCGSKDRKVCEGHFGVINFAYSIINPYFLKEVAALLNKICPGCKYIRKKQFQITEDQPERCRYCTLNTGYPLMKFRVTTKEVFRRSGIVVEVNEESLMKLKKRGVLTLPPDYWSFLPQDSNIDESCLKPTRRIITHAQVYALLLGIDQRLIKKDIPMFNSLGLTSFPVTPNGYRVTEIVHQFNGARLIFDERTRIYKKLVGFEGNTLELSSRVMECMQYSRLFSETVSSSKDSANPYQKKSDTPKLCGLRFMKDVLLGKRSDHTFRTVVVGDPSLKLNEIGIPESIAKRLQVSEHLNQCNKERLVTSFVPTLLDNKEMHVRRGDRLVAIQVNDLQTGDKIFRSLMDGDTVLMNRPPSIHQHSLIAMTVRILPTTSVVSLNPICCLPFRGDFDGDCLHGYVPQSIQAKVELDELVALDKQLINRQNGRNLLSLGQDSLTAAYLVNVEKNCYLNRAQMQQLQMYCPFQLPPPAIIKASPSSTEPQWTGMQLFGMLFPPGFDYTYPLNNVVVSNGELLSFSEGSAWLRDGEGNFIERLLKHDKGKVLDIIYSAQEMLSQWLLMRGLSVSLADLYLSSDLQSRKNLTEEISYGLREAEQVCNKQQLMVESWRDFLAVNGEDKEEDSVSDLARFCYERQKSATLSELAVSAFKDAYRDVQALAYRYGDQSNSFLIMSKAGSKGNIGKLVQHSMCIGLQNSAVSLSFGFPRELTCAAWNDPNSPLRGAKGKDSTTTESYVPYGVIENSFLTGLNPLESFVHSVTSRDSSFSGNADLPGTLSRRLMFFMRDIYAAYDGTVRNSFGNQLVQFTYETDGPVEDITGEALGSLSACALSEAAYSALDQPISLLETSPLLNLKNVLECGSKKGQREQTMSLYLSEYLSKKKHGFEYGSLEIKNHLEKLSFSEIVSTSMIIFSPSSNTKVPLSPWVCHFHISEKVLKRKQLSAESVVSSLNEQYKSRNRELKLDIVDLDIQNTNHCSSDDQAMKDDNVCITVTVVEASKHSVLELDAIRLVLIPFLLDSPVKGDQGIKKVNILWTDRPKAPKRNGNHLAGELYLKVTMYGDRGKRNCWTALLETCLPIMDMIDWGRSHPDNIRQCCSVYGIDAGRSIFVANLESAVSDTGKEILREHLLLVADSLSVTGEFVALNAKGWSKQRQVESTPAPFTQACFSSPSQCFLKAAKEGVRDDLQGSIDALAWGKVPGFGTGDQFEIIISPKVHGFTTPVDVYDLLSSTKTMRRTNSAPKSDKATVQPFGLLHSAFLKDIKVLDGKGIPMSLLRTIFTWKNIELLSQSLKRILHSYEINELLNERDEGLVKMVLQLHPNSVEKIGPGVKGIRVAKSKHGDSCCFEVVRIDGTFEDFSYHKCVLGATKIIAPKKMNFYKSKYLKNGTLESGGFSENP
Assay: co-IP

B1: recombinant RDR2 (RNA-DEPENDENT RNA POLYMERASE 2), wild type, with N-terminal V5 epitope and 6xHis tags (enzyme)
chain: MVSETTTNRSTVKISNVPQTIVADELLRFLELHLGEDTVFALEIPTTRDNWKPRDFARVQFTTLEVKSRAQLLSSQSKLLFKTHNLRLSEAYDDIIPRPVDPRKRLDDIVLTVGFPESDEKRFCALEKWDGVRCWILTEKRRVEFWVWESGDCYKIEVRFEDIIETLSCCVNGDASEIDAFLLKLKYGPKVFKRVTVHIATKFKSDRYRFCKEDFDFMWIRTTDFSGSKSIGTSTCFCLEVHNGSTMLDIFSGLPYYREDTLSLTYVDGKTFASAAQIVPLLNAAILGLEFPYEILFQLNALVHAQKISLFAASDMELIKILRGMSLETALVILKKLHQQSSICYDPVFFVKTQMQSVVKKMKHSPASAYKRLTEQNIMSCQRAYVTPSKIYLLGPELETANYVVKNFAEHVSDFMRVTFVEEDWSKLPANALSVNSKEGYFVKPSRTNIYNRVLSILGEGITVGPKRFEFLAFSASQLRGNSVWMFASNEKVKAEDIREWMGCFRKIRSISKCAARMGQLFSASRQTLIVRAQDVEQIPDIEVTTDGADYCFSDGIGKISLAFAKQVAQKCGLSHVPSAFQIRYGGYKGVIAVDRSSFRKLSLRDSMLKFDSNNRMLNVTRWTESMPCFLNREIICLLSTLGIEDAMFEAMQAVHLSMLGNMLEDRDAALNVLQKLSGENSKNLLVKMLLQGYAPSSEPYLSMMLRVHHESQLSELKSRCRILVPKGRILIGCMDEMGILEYGQVYVRVTLTKAELKSRDQSYFRKIDEETSVVIGKVVVTKNPCLHPGDIRVLDAIYEVHFEEKGYLDCIIFPQKGERPHPNECSGGDLDGDQFFVSWDEKIIPSEMDPPMDYAGSRPRLMDHDVTLEEIHKFFVDYMISDTLGVISTAHLVHADRDPEKARSQKCLELANLHSRAVDFAKTGAPAEMPYALKPREFPDFLERFEKPTYISESVFGKLYRAVKSSLAQRKPEAESEDTVAYDVTLEEAGFESFIETAKAHRDMYGEKLTSLMIYYGAANEEEILTGILKTKEMYLARDNRRYGDMKDRITLSVKDLHKEAMGWFEKSCEDEQQKKKLASAWYYVTYNPNHRDEKLTFLSFPWIVGDVLLDIKAENAQRQSVEEKTSGLVSI
binding result: binds
